How the values were obtained:
hNE [1] = target: T1, hNE (Homo sapiens, UniProt P08246); experiment: Kinetic on-rate of inhibitors reacting with hNE (progressive inhibition); format: biochemical; conditions: for kon: [hNE] = 8.47 × 10^−10 molar; for koff: calculated from koff = KD × kon
T1 sequence (P08246 30-267): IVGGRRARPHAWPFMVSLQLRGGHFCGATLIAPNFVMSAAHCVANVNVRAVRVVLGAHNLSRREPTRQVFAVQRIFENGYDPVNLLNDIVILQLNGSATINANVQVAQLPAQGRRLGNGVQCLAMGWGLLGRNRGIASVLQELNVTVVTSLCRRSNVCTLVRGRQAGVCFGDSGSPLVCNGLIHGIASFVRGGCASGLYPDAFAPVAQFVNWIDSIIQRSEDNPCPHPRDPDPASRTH
Protocol: The kinetic on-rates for the inhibitors reacting with hNE (kon) were determined from measurements of progressive inhibition of substrate hydrolytic activity by hNE following addition of inhibitor. For these experiments, a known concentration of inhibitor was added to a solution of hNE (0.847 nM) and substrate (25 μM) in 2 ml of reaction buffer in a plastic fluorescence cuvette. The change in fluorescence was recorded continuously following addition of the inhibitor. […] The enzymatic rate at selected times following addition of the inhibitor was determined from the slope of the tangent to the fluorescence time course at that time.
The kinetic constant kon for EPI-HNE-2 reacting with hNE was determined as follows. EPI-HNE-2 at 1.3 nM was added to buffer containing 0.867 nM hNE (I:E=1.5:1) at time 0. Measured percent residual activity was recorded as a function of time after addition of inhibitor. A least-squares fit program was used to obtain the value of kon=4.0×10^6 M^−1s^−1.
The kinetic off rate, koff, is calculated from the measured values of Ki and kon as: […] The values from such measurements are included in Table 30. The EPI-HNE proteins are small, high affinity, fast acting inhibitors of hNE. B. Specificity.

hNE [2] = target: T1, hNE; experiment: pH stability, residual hNE inhibitory activity; format: physicochemical; conditions: 37° C., 18 hours; for pH stability: pH 1 to pH 10, 1 μM; for Percent Residual hNE Inhibitory Activity: 1 μM protein
Protocol: The stability of the proteins to exposure to pH conditions in the range of pH 1 to pH 10 was assessed by maintaining the inhibitors in buffers of defined pH at 37° C. for 18 hours and determining the residual hNE inhibitory activity in the standard hNE-inhibition assay. Proteins were incubated at a concentration of 1 μM. The buffers shown in Table 4 were formulated as described (STOL90) and used in the pH ranges indicated: […]
Proteins were incubated at 37° C. for 18 hours in buffers of defined pH (see text). In all cases protein concentrations were 1 μM. At the end of the incubation period, aliquots of the reactions were diluted and residual hNE-inhibition activity determined.

| Substance | kon (hNE [1]) | koff (hNE [1]) | pH stability (hNE [2]) | Percent Residual hNE Inhibitory Activity (hNE [2]; Incubation pH 1.0) [%] | Percent Residual hNE Inhibitory Activity (hNE [2]; Incubation pH 2.0) [%] | Percent Residual hNE Inhibitory Activity (hNE [2]; Incubation pH 3.0) [%] | Percent Residual hNE Inhibitory Activity (hNE [2]; Incubation pH 4.0) [%] | Percent Residual hNE Inhibitory Activity (hNE [2]; Incubation pH 5.5) [%] | Percent Residual hNE Inhibitory Activity (hNE [2]; Incubation pH 6.0) [%] | Percent Residual hNE Inhibitory Activity (hNE [2]; Incubation pH 6.5) [%] | Percent Residual hNE Inhibitory Activity (hNE [2]; Incubation pH 7.0) [%] | Percent Residual hNE Inhibitory Activity (hNE [2]; Incubation pH 7.5) [%] | Percent Residual hNE Inhibitory Activity (hNE [2]; Incubation pH 8.0) [%] | Percent Residual hNE Inhibitory Activity (hNE [2]; Incubation pH 8.5) [%] | Percent Residual hNE Inhibitory Activity (hNE [2]; Incubation pH 9.4) [%] | Percent Residual hNE Inhibitory Activity (hNE [2]; Incubation pH 10.0) [%] |
| --- | --- | --- | --- | --- | --- | --- | --- | --- | --- | --- | --- | --- | --- | --- | --- | --- |
| EPI-HNE-3: ITI-D2(3-58) with R15I, I18F, Q19P, L20R; SEQ ID NO 026 (AACNLPIVRGPCIAFFPRWAFDAVKGKCVLFPYGGCQGNGNKFYSEKECREYCGVP; Epi-HNE-3) | 8.0 10^6/M/s | 50. 10^−6/s | stable when incubated at low pH, but showed some loss of activity at high pH | 97 | 97 | 100 | 102 | 99 | 103 | 99 | 103 | 87 | 84 | 68 | 44 | 27 |
| EPI-HNE-2: EPI-HNE-1 with four additional residues EAEA at the amino terminus, SEQ ID NO 008 | 4.0 10^6/M/s | 20. 10^−6/s | stable at all pH values tested | 98 | 97 | 101 | 101 | 99 |  |  | 103 |  |  | 104 |  | 102 |
